How the values were obtained:
[1] = biological target: KHC-584 (first 584 amino acids of rat KHC, expressed in E. coli) (UniProt Q2PQA9)
[2] = biological target: immunoprecipitated endogenous mouse brain kinesin-1 (UniProt Q61768)
immunoprecipitated endogenous mouse brain kinesin-1, sequence (Q61768 whole entry, looked up): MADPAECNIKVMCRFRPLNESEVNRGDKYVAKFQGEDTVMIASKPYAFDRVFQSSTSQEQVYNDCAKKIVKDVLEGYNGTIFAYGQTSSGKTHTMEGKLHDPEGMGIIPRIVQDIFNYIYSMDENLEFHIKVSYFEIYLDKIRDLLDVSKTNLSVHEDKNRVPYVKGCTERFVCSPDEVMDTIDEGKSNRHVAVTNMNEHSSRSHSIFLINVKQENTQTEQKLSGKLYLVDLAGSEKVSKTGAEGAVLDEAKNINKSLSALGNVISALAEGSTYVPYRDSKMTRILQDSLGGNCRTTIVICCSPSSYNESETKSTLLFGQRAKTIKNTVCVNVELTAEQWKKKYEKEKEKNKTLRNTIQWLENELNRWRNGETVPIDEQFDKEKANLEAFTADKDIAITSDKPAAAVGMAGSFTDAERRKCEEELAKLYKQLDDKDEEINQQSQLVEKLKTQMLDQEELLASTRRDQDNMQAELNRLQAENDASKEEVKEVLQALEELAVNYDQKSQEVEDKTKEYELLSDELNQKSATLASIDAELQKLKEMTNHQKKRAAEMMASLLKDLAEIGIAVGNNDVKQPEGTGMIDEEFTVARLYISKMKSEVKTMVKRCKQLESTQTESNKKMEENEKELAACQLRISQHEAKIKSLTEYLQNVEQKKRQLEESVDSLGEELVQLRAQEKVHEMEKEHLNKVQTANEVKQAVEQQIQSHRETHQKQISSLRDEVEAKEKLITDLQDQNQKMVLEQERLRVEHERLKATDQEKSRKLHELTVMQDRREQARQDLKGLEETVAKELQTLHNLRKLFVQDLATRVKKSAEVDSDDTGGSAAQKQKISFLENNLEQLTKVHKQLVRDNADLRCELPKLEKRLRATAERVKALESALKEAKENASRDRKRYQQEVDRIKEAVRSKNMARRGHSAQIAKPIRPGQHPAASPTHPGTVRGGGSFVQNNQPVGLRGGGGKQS

recombinant 6-His-tagged JNK3 kinase (JNK3/SAPK1b, Upstate Biotechnology), sequence (P53779 whole entry): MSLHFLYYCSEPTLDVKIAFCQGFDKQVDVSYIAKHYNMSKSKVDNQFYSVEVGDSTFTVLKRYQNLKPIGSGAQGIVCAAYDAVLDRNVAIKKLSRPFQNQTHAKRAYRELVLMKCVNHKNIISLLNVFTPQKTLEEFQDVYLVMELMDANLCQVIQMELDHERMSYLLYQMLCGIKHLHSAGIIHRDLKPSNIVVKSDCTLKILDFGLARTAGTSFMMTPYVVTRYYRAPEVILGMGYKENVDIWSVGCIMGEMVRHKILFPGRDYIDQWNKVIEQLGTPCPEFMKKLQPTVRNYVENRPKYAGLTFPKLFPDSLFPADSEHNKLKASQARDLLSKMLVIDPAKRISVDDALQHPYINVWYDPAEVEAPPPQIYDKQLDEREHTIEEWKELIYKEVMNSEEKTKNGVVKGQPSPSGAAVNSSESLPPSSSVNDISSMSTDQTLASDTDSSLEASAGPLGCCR
KHC-584 (first 584 amino acids of rat KHC, expressed in E. coli), sequence (Q2PQA9 1-584): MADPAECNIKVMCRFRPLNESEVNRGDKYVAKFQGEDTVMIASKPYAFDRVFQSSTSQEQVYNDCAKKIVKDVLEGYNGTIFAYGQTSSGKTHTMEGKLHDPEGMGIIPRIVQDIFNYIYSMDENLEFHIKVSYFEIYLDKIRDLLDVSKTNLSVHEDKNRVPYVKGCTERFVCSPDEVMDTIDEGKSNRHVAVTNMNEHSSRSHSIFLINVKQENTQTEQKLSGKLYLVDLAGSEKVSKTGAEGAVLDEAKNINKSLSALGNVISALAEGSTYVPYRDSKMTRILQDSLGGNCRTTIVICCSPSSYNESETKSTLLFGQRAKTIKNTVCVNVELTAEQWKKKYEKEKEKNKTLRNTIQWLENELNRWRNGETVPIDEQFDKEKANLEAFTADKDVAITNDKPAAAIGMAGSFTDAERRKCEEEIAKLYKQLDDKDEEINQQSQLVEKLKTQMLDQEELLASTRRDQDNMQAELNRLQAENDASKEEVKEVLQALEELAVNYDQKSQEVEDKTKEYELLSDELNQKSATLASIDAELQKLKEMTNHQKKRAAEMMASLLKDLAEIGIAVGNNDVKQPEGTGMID

recombinant 6-His-tagged JNK3 kinase (JNK3/SAPK1b, Upstate Biotechnology)
in vitro kinase assay (32P incorporation) [1]: both recombinant KHC and immunoprecipitated endogenous mouse brain kinesin-1 KHC could be phosphorylated by recombinant JNK | in vitro phosphorylation, mass spectrometry of tryptic peptides [1]: A single tryptic peptide was identified with evidence of phosphorylation | in vitro kinase assay (32P incorporation) [2]: both recombinant KHC and immunoprecipitated endogenous mouse brain kinesin-1 KHC could be phosphorylated by recombinant JNK | in vitro phosphorylation, autoradiogram [2]: Autoradiograms showed 32P incorporation in KHCs, but not KLCs
